In the supplement of paper PMC10126150:
± gives the standard deviation of the averaged measurements.

Tested on: ATP
Test: switch fluorescence ratio, 500 uM ATP over buffer (Cy3 cluster intensity, sum of 5 cycles each) (fold (ratio)); higher = stronger signal-on switching upon ATP binding; sequences stand for … in TCGTCGGCAGCGTCAGATGTGTATAAGAGACAGTTTTTTTTTTTTTTTTTTTTTTTTT…TC
Settings: aptamer strand: ATP DNA aptamer (quencher-CACCTGGGGGAGTATTGCGGAGGAAGG + anchor), 100 nM annealed; ATP concentration: 500 uM
Summary of the method: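 Clusters carrying Cy3-labelled switching strands on a modified Illumina MiSeq flow-cell were annealed to 100 nM quencher-labelled ATP aptamer and imaged in selection buffer. They were imaged again after 15 min with 500 uM ATP at 22 °C, over five buffer/ATP cycles with NaOH stripping and re-annealing in between. For each cluster, the fluorescence ratio is the summed Cy3 intensity of the target cycles divided by that of the buffer cycles, averaged per switch-domain sequence. Clusters outside 100-1000 RFU were left out.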
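Further: ATP exposure 15 min at 22 °C before imaging.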

| Sequence | switch fluorescence ratio |
| --- | --- |
| TTGGTTACAT | 0.994 ± 0.013 |
| TTGGTTGTAA | 1.03 ± 0.059 |
| TTGGTTTGAG | 1.016 ± 0.0031 |
| TTGGTTTGTT | 0.982 ± 0.018 |
| TTGGTTTTAT | 1.02 ± 0.014 |
| TTGGTTTTTG | 1 ± 0.037 |
| TTGTAAAATA | 0.978 ± 0.058 |
| TTGTAAATGA | 1.02 ± 0.015 |
| TTGTAAGATC | 1.02 ± 0.029 |
| TTGTAAGGGG | 1.009 ± 0.0031 |
| TTGTAAGTT | 0.99664 ± 0.00012 |
| TTGTAATTCT | 1.167 ± 0.0018 |
| TTGTACCATA | 1.1 ± 0.071 |
| TTGTAGAATG | 0.9821 ± 0.0066 |
| TTGTAGCACG | 1.07 ± 0.037 |
| TTGTAGGGCC | 1.03 ± 0.022 |
| TTGTAGTCGG | 1 ± 0.053 |
| TTGTATAAA | 1 ± 0.022 |
| TTGTATACCT | 1.17 ± 0.02 |
| TTGTATAGGA | 0.998 ± 0.029 |
| TTGTATGAGT | 0.986 ± 0.025 |
| TTGTATGGGG | 0.984 ± 0.033 |
| TTGTATGTAC | 1.22 ± 0.13 |
| TTGTATGTCT | 0.991 ± 0.044 |
| TTGTATTAGT | 0.9835 ± 0.0093 |

| Sequence | switch fluorescence ratio |
| --- | --- |
| TTGTATTCGG | 1 ± 0.03 |
| TTGTATTTGT | 0.999 ± 0.031 |
| TTGTCAGCGT | 0.997 ± 0.012 |
| TTGTCCGAGC | 1.06 ± 0.023 |
| TTGTCCGTAG | 1.0583 ± 0.00024 |
| TTGTCCTTTG | 0.993 ± 0.013 |
| TTGTCTGTCC | 0.98 ± 0.018 |
| TTGTGAACTT | 0.9794 ± 0.0046 |
| TTGTGAATAT | 1 ± 0.044 |
| TTGTGAGCAA | 1.33 ± 0.11 |
| TTGTGAGGGA | 0.9946 ± 0.0034 |
| TTGTGAGTCT | 1.01 ± 0.011 |
| TTGTGATCGG | 0.978 ± 0.03 |
| TTGTGATTTT | 1.02 ± 0.048 |
| TTGTGGAACG | 0.989 ± 0.019 |
| TTGTGGAGAA | 1.04 ± 0.072 |
| TTGTGGATTA | 1 ± 0.027 |
| TTGTGGCCGG | 0.978 ± 0.045 |
| TTGTGGCGGA | 1.0229 ± 0.00038 |
| TTGTGGCTGG | 0.96 ± 0.035 |
| TTGTGGGGTC | 1 ± 0.036 |
| TTGTGGGTAT | 0.954 ± 0.013 |
| TTGTGGGTTT | 1.05 ± 0.2 |
| TTGTGGTAAG | 0.992 ± 0.022 |
| TTGTGGTCCT | 0.974 ± 0.029 |

| Sequence | switch fluorescence ratio |
| --- | --- |
| TTGTGGTCGG | 0.982 ± 0.036 |
| TTGTGTAAGC | 1.01 ± 0.038 |
| TTGTGTAGCT | 1.02 ± 0.0057 |
| TTGTGTATTT | 1.001 ± 0.0098 |
| TTGTGTCGCT | 1.0031 ± 0.0004 |
| TTGTGTGGGA | 1.02 ± 0.026 |
| TTGTGTGGGG | 1.01 ± 0.034 |
| TTGTGTTTGT | 1 ± 0.03 |
| TTGTTAAGGC | 1.02 ± 0.037 |
| TTGTTAATCG | 0.984 ± 0.011 |
| TTGTTAGTCA | 1.0317 ± 4.4e-05 |
| TTGTTAGTTA | 1.01 ± 0.015 |
| TTGTTATCGG | 1.04 ± 0.04 |
| TTGTTATGCG | 0.995 ± 0.012 |
| TTGTTATGGC | 0.9795 ± 0.0059 |
| TTGTTATGGT | 1 ± 0.025 |
| TTGTTATTTA | 0.9903 ± 0.0019 |
| TTGTTCCAAT | 0.989 ± 0.012 |
| TTGTTCGGAG | 1.0006 ± 0.00036 |
| TTGTTCGGTT | 0.998 ± 0.024 |
| TTGTTCTTTT | 1.07 ± 0.077 |
| TTGTTGAATT | 0.98 ± 0.042 |
| TTGTTGATGC | 1.14 ± 0.021 |
| TTGTTGGCCG | 0.9637 ± 0.0078 |
| TTGTTTAAAA | 1.01 ± 0.049 |

| Sequence | switch fluorescence ratio |
| --- | --- |
| TTGTTTAAAG | 0.9764 ± 0.0021 |
| TTGTTTAACG | 0.99757 ± 0.00042 |
| TTGTTTACCC | 0.9713 ± 0.0036 |
| TTGTTTATAA | 1.02 ± 0.083 |
| TTGTTTATCA | 0.9865 ± 0.0096 |
| TTGTTTCGTT | 0.9804 ± 0.0073 |
| TTGTTTCTCT | 0.959 ± 0.016 |
| TTGTTTGATG | 1.01 ± 0.011 |
| TTGTTTGCGA | 0.999 ± 0.01 |
| TTGTTTGGAT | 1.01 ± 0.05 |
| TTGTTTGGCA | 0.991 ± 0.025 |
| TTGTTTGTAG | 1.03 ± 0.052 |
| TTGTTTGTTT | 0.997 ± 0.035 |
| TTGTTTTCCG | 1.02 ± 0.014 |
| TTGTTTTCGC | 1.04 ± 0.046 |
| TTGTTTTGAG | 0.994 ± 0.013 |
| TTGTTTTGTA | 0.992 ± 0.024 |
| TTGTTTTTAT | 0.992 ± 0.03 |
| TTTAAAACTT | 2.03 ± 1.4 |
| TTTAAAAGCT | 1.07 ± 0.038 |
| TTTAAAAGGC | 1.01 ± 0.028 |
| TTTAAAAGTC | 1.07 ± 0.086 |
| TTTAAAATGT | 1.12 ± 0.25 |
| TTTAAAATTA | 0.9978 ± 0.0042 |
| TTTAAAATTT | 1.01 ± 0.041 |
